{"source": "patent US20040001822A1", "about": "“Y1-isolated molecules comprising epitopes containing sulfated moieties, antibodies to such epitopes, and uses thereof” (priority 2000, published 2004)", "molecules": {"B1": {"name": "Y1 scFv: fully human scFv clone binding platelets and myelogenous leukemia cells, SEQ ID NO: 25 (protein, listed as Homo sapiens)", "scFv": "MKYLLPTAAAGLLLLAAQPAMAEVQLVESGGGVVRPGGSLRLSCAASGFTFDDYGMSWVRQAPGKGLEWVSGINWNGGSTGYADSVKGRFTISRDNAKNSLYLQMNSLRAEDTAVYYCARMRAPVIWGQGTLVTVSRGGGGSGGGGSGGGGSSELTQDPAVSVALGQTVRITCQGDSLRSYYASWYQQKPGQAPVLVIYGKNNRPSGIPDRFSGSSSGNTASLTITGAQAEDEADYYCNSRDSSGNHVVFGGGTKLTVLGAAAEQKLISEEDLNGAA"}}, "key": {"washed platelets": {"system": "washed platelets", "assay": "Ristocetin-induced agglutination of washed platelets after preincubation with scFv", "type": "cell-based, human", "experimental": "Aggregation is determined in PRP due to the presence of thrombotic agents, while agglutination is determined in washed platelets. The effect of Y1 (scFv) on agglutination of washed platelets was tested at various concentrations of Y1. Platelets were pre-incubated with Y1 scFv, Y17 scFv, Y16-scFv, or a control TM-1 scFv for 4 min at 37° C. before being exposed to ristocetin, an inducer of platelet agglutination and aggregation.\nPlatelet concentrate in acid-citrate-dextrose (ACD) was obtained from a blood bank, platelets were isolated, washed once in buffer containing ACD and saline in a ratio of 1:7. The platelets were centrifuged at 800 g for 10 min after each wash and were resuspended in Tyrodes solution (2 mM MgCl2, 137 mM NaCl, 2.68 mM KCl, 3 mM NaH2PO4, 0.1% glucose, 5 mM Hepes and 0.35% albumin, pH 7.35) and count the number of cells.\nFor platelet aggregation studies, platelet rich plasma (PRP) and washed platelets were stirred at 500 rpm at 37° C. in whole blood Lumiaggregometer (Chronolog, Havertown,Pa.). The difference in light transmission through the platelet suspension and suspending medium was taken as 100% aggregation. The effect of Y1 on platelet aggregation was evaluated by addition of different concentration of Y1 before the addition of agonist, and the effect was recorded for four minutes.\nThe effect of Y17-scFv on vWF-dependent agglutination of platelets was tested at different concentrations of Y17."}, "Leukemia Cells": {"system": "Leukemia Cells", "assay": "FACS of leukemia samples: anti-CD162 versus Y1", "type": "binding, human", "settings": "12 patient samples of Table 11", "experimental": "Analysis of binding of scFv Y1 antibodies and anti-CD162 antibodies to diseased cells also illustrates that scFv Y1 has binding characteristics different from those of anti-CD162 antibodies. […] (Table F). Y1 binds to the leukemic cells in 10 of 12 samples. In contrast, anti-CD162 bound only 5 out of 12 samples. […] Thus, it may be concluded that, in leukemic cells, scFv Y1 binds to a ligand other than that recognized by anti-CD162.\nSamples provided from hospitals. Patients sample 30 μl/tube. Add 5 μl/tube of CD33-APC (for AML) or CD19-APC (for B-CLL) or CD38-APC (for Multiple Myeloma). Add 5 μl/tube of CD45-PerCp and 5 μl of scFv-Y1 or control scFv-N31 or CD162-PE (KPL1). Incubate tubes 30 minutes at 4° C. with low shaking. Wash by adding 2 ml PBS and spin 5 minutes at 1200 rpm. Discard supernatant.\nFor a one step assay continue with the lysis step:\nAdd 500 μl BD Lysine solution diluted 1:10 with ddH2O (300 μl to patient sample). Vortex at high speed and incubate 12 minutes at 4° C. Wash as above. Discard supernatant. And add 500 μl PBS. The samples are read in the FACS using blood sample acquisition setup according to international standards.\nFor two or more assays: working buffer is PBS+1% BSA+0.05% sodium azide. Incubations and wash as above.\nLysis of the red blood cells is the final step in the assay, followed by resuspension with 500 μl PBS."}, "Glycocalicin (GC)": {"system": "Glycocalicin (GC)", "assay": "Western blot with Y1 on enzyme-treated glycocalicin", "type": "binding, human", "settings": "O-Sialo glycoprotein endopeptidase, 30′ at 37° C.", "from_the_text": "Y1 ligand was further characterized using enzymatic treatments with proteases, glycanases, and […]; Western blotting with Y1, anti-CD42 antibodies, anti-CD162 antibodies and 181, immunoprecipitation using Y1 and anti-CD162 antibodies; FACS analysis using Y1 anti-CD162 antibodies; and sequencing.\nThe table below summarizes the biochemical experiments preformed to characterize and localize the Y1 binding site on KG-1 cells.\nWestern Blot Analysis with Y1 on SDS-PAGE Reducing Gels\nThe nitrocellulose membrane was blocked using 5% skim milk for one hour at room temperature. The membrane was then washed 3 times for 5 minutes each with 0.05% Tween 20 in PBS at room temperature. The membrane was incubated with 5 μg/ml Y1-biotin (or 181-biotin) in 2% skim milk in PBS for one hour at room temperature. The membrane was then washed 3 times for 5 minutes each with cold 0.05% Tween 20 in PBS in the cold room (about 4 to about 10° C.). The membrane was then incubated in the cold room with a 1:1000 dilution of SAV-HRP (streptavidin-HRP) (at a final concentration of […]) in 2% skim milk, 0.05% Tween. The dilution was carried out at room temperature (about 25° C.), then the diluted SAV-HRP was cooled on ice for 10-15 minutes before use. The incubation was carried out for 1 hour with gentle shaking. After the incubation with SAV-HRP, the membrane was washed, as above. […]"}, "[1]": {"target": "T1, recombinant bacterial derived glycocalicin (Homo sapiens, UniProt P07359)", "T1 construct": "GC, amino acid 1 to amino acid 493 of GPIbα; made in house; host or cells: E. coli BL21 DE3 (total cell lysate loaded on the gel)", "assay": "Western blot on recombinant glycocalicin expressed in E. coli", "type": "binding", "settings": "E. coli cell lysates", "experimental": "The DNA fragment encoding for glycocalicin (GC, amino acid 1 to amino acid 493 of GPIbα ) was cloned into an IPTG inducible prokaryotic vector cassette. E. coli (BL21 DE3) cells harboring the newly constructed plasmid were grown at 37° C. to O.D. 0.7-0.8, than at 37° C. for 3 hours for in the presence of IPTG for induction.\nSDS-polyacrylamide gel loaded either with semi-purified human platelet derived glycocalicin (“GC”) or with E. coli cell lysates (“total”) derived from induced and non-induced cells were analyzed. Western blot analysis was performed with biotinylated Y1-scfv, polyclonal rabbit anti-human glycocalicin antibody, commercially available mouse anti-human CD42 monoclonal antibody (SZ2 Immunotech, PM640 Serotec, HIP1 Pharmigen, AN51 DAKO), and polyclonal antibody against the N-terminus of GPIbα (Sc-7071, Santa Cruz).\nThe DNA fragment encoding the N-terminal soluble part of human platelet GP1b-glycocalicin (GC, amino acid 1 to amino acid 493) was cloned into an IPTG inducible prokaryotic vector cassette. E. coli (BL21 DE3) cells harboring the newly constructed plasmid were grown at 37° C. to O.D. 0.7-0.8, than at 37° C. for 3 hours for in the presence of IPTG for induction. SDS-polyacrylamide gel loaded either with semi-purified human platelet derived GC or with E. coli cell lysates (total protein content) derived from induced and non-induced cells were analyzed. […]"}}, "data": [{"molecule": "B1", "values": [{"measurement": "% agglutination", "setting": "washed platelets; scFv 4 μg/ml", "result": 92, "unit": "%"}, {"measurement": "% inhibition", "setting": "washed platelets; scFv 4 μg/ml", "result": 8, "unit": "%"}, {"measurement": "% inhibition", "setting": "washed platelets; scFv 4 μg/ml, listed as Y1", "result": "No inhibition"}, {"measurement": "% agglutination", "setting": "washed platelets; scFv 12.5 μg/ml", "result": 67, "unit": "%"}, {"measurement": "% inhibition", "setting": "washed platelets; scFv 12.5 μg/ml", "result": 33, "unit": "%"}, {"measurement": "% inhibition", "setting": "washed platelets; scFv 12.5 μg/ml, listed as Y1", "result": "only partial inhibition"}, {"measurement": "% agglutination", "setting": "washed platelets; scFv 25 μg/ml, ristocetin = 100% agglutination", "result": 23, "unit": "%"}, {"measurement": "leukemia samples whose leukemic cells are bound", "setting": "Leukemia Cells", "result": "10 of 12"}, {"measurement": "Reactivity with Y1", "setting": "Glycocalicin (GC)", "result": "Enhanced"}, {"measurement": "recognition in Western blot", "setting": "[1]", "result": "did not recognize"}]}]}
